Experimental data reported in the supplement of paper PMC10065799, “High-throughput profiling of sequence recognition by tyrosine kinases and SH2 domains using bacterial peptide display” (eLife, 2023).

Key:
[1] = target: c-Src SH2; test: SH2 binding enrichment of the phosphorylated peptide, bacterial display (enrichment ratio); higher = better substrate or ligand; peptides without Tyr show the background
[2] = target: Grb2 SH2 (UniProt P62993); test: as above
[3] = target: SHP2-C SH2; test: as above
[4] = target: Hck (UniProt P08631); test: phosphorylation enrichment, bacterial display (enrichment ratio); higher = better substrate or ligand; peptides without Tyr show the background
[5] = target: EPHB1 (UniProt P54762); test: as above
[6] = test system: c-Src; test: as above
[7] = target: Fes (UniProt P07332); test: as above
[8] = target: EPHB2 (UniProt P29323); test: as above
[9] = target: MERTK (UniProt Q12866); test: as above
[10] = test system: Fer (mouse); test: as above
[11] = target: Fyn (UniProt P06241); test: as above
[12] = target: FGFR1 (UniProt P11362); test: as above
[13] = target: Jak2 (UniProt O60674); test: as above
[14] = test system: c-Abl (mouse); test: as above
[15] = target: FGFR3 (UniProt P22607); test: as above
[16] = test system: AncSZ; test: as above
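For SH2 binding enrichment of the phosphorylated peptide, bacterial display in this document: peptide library displayed on the E. coli surface as eCPX fusions, selected cells deep-sequenced, score is each peptide's frequency after selection divided by its frequency in the input.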
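For phosphorylation enrichment, bacterial display in this document: 11-residue human phosphosite peptides and single-mutation variants displayed on the E. coli surface, counted by deep sequencing, each peptide's frequency after selection divided by its frequency in the unselected input library; frequency after pTyr selection over input frequency; kinase dosed for 20-30% of maximal phosphorylation in three min.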

EPHB2, sequence (P29323 whole entry, looked up): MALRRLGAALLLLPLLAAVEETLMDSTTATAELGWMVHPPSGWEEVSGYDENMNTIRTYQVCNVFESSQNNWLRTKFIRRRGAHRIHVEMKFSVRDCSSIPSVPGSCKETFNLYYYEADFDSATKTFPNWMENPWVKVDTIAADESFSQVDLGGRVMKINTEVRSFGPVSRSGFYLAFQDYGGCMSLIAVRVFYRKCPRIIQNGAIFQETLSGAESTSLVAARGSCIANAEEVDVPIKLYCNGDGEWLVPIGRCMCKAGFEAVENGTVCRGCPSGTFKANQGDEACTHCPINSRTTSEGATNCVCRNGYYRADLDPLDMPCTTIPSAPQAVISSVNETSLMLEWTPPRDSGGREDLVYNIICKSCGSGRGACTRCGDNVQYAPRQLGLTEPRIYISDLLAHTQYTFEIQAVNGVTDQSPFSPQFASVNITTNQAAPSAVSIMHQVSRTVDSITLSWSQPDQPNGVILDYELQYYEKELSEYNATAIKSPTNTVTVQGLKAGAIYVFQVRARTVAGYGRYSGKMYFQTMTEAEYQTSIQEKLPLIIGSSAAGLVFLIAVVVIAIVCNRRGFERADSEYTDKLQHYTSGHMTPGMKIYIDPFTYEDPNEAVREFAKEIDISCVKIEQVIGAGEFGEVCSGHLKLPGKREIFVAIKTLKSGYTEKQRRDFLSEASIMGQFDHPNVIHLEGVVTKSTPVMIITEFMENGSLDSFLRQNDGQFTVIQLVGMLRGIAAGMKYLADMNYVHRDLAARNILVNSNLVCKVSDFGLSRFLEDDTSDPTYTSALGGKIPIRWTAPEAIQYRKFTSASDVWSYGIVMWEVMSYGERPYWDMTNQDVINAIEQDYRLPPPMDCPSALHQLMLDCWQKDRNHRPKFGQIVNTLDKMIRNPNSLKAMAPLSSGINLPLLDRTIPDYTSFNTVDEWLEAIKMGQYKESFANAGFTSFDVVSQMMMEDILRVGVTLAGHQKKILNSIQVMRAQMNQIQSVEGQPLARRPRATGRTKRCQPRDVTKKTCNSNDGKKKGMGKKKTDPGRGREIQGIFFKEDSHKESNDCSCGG
Jak2, sequence (O60674 whole entry, looked up): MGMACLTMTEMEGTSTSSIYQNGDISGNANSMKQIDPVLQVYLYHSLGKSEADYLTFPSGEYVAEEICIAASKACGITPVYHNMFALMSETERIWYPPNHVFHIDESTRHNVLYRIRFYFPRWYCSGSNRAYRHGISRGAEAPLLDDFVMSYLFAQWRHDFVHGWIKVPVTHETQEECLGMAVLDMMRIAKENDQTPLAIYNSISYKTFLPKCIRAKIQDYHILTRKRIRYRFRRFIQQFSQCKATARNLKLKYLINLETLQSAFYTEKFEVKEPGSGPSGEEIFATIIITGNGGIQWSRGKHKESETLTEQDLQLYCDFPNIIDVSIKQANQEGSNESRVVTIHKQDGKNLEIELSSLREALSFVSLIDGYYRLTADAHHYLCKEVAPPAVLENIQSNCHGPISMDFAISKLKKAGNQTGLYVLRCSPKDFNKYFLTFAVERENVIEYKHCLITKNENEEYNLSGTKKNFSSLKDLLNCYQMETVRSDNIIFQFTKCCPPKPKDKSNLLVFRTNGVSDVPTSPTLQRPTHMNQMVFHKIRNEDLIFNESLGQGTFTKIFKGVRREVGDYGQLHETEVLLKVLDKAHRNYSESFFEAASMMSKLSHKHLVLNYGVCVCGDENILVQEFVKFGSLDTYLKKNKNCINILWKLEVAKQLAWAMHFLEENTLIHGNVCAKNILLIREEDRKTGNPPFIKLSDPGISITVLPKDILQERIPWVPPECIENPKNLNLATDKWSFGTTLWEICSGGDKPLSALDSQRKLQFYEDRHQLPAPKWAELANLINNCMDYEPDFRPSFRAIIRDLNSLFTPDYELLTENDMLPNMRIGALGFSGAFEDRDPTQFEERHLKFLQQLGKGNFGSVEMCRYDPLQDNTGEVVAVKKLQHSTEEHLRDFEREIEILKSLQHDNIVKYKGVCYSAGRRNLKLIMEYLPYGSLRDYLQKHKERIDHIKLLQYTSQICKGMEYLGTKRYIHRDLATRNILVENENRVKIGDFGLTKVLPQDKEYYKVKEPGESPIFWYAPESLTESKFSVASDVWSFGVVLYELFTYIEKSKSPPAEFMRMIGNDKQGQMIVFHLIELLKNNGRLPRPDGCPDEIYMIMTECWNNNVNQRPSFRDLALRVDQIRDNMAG
FGFR1, sequence (P11362 whole entry, looked up): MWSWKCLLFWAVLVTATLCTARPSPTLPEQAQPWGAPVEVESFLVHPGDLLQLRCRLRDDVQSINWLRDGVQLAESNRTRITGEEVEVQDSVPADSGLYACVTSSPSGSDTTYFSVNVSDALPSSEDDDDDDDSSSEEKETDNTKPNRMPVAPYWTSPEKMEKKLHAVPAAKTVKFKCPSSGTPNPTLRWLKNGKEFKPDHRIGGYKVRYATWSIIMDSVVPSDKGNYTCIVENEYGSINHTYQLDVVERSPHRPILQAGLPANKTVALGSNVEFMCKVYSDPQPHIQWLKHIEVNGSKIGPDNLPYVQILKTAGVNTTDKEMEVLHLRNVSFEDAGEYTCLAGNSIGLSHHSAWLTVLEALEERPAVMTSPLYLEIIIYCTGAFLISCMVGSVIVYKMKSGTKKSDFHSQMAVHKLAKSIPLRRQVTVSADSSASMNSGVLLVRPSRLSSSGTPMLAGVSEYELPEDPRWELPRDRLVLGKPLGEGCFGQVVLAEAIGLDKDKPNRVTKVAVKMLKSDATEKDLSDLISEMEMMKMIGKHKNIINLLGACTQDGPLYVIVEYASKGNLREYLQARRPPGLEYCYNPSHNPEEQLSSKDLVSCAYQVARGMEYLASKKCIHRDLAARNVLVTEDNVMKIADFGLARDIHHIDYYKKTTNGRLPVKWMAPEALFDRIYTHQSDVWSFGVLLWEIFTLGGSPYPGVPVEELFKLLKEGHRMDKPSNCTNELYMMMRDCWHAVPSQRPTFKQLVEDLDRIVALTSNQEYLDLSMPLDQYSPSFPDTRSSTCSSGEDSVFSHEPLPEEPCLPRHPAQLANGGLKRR
Fyn, sequence (P06241 whole entry, looked up): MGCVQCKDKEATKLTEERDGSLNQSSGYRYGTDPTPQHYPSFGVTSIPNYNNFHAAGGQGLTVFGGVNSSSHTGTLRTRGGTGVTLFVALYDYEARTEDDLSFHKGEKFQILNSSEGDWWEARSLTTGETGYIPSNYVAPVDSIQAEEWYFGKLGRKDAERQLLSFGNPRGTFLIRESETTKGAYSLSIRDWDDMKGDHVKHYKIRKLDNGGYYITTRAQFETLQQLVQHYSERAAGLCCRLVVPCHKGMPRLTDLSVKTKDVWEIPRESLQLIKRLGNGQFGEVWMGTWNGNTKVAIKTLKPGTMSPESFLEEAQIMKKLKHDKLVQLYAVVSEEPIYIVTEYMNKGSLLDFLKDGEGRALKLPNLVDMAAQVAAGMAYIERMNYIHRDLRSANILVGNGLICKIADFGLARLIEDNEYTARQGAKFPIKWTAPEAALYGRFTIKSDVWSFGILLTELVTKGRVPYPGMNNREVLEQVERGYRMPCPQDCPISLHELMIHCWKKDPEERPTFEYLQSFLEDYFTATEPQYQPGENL
MERTK, sequence (Q12866 whole entry, looked up): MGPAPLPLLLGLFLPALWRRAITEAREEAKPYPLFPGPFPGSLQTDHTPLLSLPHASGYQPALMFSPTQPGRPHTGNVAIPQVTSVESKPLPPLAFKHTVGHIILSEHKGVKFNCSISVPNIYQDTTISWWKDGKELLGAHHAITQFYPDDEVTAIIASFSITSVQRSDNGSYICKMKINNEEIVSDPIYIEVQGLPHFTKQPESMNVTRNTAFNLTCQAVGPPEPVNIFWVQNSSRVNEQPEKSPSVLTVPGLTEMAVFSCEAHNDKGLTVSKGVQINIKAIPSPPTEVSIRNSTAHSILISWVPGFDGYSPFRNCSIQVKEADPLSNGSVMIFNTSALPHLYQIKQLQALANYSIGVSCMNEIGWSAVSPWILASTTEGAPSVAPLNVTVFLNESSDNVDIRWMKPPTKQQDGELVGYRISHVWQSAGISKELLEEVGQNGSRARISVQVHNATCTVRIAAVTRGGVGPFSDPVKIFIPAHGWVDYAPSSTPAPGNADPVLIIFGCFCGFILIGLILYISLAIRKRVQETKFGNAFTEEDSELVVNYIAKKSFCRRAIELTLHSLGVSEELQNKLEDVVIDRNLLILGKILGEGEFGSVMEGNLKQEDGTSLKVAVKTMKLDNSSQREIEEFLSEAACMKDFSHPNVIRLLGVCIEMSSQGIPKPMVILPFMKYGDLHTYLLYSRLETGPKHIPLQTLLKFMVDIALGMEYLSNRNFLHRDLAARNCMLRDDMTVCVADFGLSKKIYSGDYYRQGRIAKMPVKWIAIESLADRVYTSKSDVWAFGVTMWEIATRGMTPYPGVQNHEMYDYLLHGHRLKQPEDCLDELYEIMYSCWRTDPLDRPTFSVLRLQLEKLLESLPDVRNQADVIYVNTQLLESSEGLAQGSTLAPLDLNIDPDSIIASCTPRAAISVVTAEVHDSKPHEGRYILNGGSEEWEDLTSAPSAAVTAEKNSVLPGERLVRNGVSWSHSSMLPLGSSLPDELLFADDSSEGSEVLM
Hck, sequence (P08631 whole entry, looked up): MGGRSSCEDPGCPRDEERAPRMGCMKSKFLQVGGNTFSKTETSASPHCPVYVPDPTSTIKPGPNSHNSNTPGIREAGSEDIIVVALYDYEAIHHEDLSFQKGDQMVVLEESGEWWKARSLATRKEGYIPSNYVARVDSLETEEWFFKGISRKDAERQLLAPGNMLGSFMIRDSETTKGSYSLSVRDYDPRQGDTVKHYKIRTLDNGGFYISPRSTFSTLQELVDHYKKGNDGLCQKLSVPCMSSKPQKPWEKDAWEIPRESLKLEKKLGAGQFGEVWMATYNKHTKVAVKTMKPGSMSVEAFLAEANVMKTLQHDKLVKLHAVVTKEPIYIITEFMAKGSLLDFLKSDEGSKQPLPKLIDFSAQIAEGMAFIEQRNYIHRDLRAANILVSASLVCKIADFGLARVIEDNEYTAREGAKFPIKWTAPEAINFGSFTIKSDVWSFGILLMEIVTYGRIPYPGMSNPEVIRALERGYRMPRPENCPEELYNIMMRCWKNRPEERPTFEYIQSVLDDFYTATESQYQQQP

| Sequence | SH2 binding enrichment [1] | SH2 binding enrichment [2] | SH2 binding enrichment [3] | phosphorylation enrichment [4] | phosphorylation enrichment [5] | phosphorylation enrichment [6] | phosphorylation enrichment [7] | phosphorylation enrichment [8] | phosphorylation enrichment [9] | phosphorylation enrichment [10] | phosphorylation enrichment [11] | phosphorylation enrichment [12] | phosphorylation enrichment [13] | phosphorylation enrichment [14] | phosphorylation enrichment [15] | phosphorylation enrichment [16] |
| --- | --- | --- | --- | --- | --- | --- | --- | --- | --- | --- | --- | --- | --- | --- | --- | --- |
| EQDRAYLEGTC [HLA-C_Y183_L180D] | 0.771 | 0.939 | 0.868 | 0.507 | 0.549 | 0.519 | 1.14 | 0.574 | 0.454 | 0.499 | 0.511 | 0.521 | 0.978 | 0.84 | 0.663 | 1.1 |
| LLIMEYAKYGS [RET_Y806_V804M] | 1.11 | 1.41 | 1.04 | 0.64 | 1.4 | 0.973 | 1.81 | 1.02 | 0.6 | 0.903 | 1.03 | 0.999 | 2.18 | 1.51 | 1.19 | 1.39 |
| TKQLTYEEQDL [PIK3C3_Y310] | 0.541 | 0.786 | 0.686 | 0.552 | 0.655 | 0.539 | 1.38 | 0.653 | 0.483 | 0.649 | 0.529 | 0.576 | 1.19 | 1.01 | 0.791 | 1.27 |
| KLSCSYSHLSA [C4BPA_Y470_W473L] | 0.631 | 0.897 | 0.734 | 0.513 | 0.535 | 0.584 | 1.21 | 0.588 | 0.58 | 0.55 | 0.572 | 0.574 | 1.06 | 0.782 | 0.742 | 1.15 |
| ARAGEYGAEAL [HBA1_Y25_H21R] | 0.487 | 0.923 | 0.667 | 0.432 | 0.465 | 0.396 | 0.829 | 0.469 | 0.379 | 0.383 | 0.655 | 0.473 | 0.697 | 0.571 | 0.524 | 0.866 |
| KVGPGYLGSGG [RET_Y826] | 0.44 | 0.685 | 0.583 | 0.315 | 0.287 | 0.368 | 0.451 | 0.377 | 0.423 | 0.365 | 0.42 | 0.334 | 0.457 | 0.399 | 0.392 | 0.438 |
| LDTIQYSKHPP [SQSTM1_Y433] | 0.408 | 0.652 | 0.771 | 0.695 | 0.778 | 0.649 | 1.73 | 0.998 | 0.792 | 0.583 | 0.917 | 0.6 | 1.07 | 0.75 | 1.08 | 1.01 |
| GVASDYKCIDP [VPS13B_Y1991] | 0.65 | 0.888 | 0.524 | 0.747 | 0.739 | 0.427 | 1.01 | 0.589 | 0.365 | 0.587 | 0.548 | 0.724 | 0.703 | 0.496 | 0.827 | 1.08 |
| TISPFYCQSLF [CRYAA_Y48_R49C_YF] | 0.632 | 0.912 | 0.707 | 0.643 | 0.682 | 0.516 | 1.2 | 0.579 | 1.8 | 0.837 | 0.571 | 0.535 | 0.992 | 0.768 | 0.723 | 1.05 |
| PPDGEYFTLQI [TP53_Y327_L323P] | 0.537 | 0.561 | 1.1 | 2.75 | 1.19 | 5.4 | 1.74 | 1.14 | 0.902 | 1.41 | 3.74 | 12.4 | 3.69 | 2.33 | 10.2 | 3.41 |
| VVKTVYSLQPP [KNSTRN_Y87] | 0.441 | 0.803 | 1.03 | 1.17 | 0.571 | 2.46 | 0.817 | 0.45 | 2.61 | 0.387 | 2.59 | 0.458 | 0.681 | 0.777 | 0.525 | 0.862 |
| KRIETYFSKNY [PLP1_Y50_L46R] | 0.502 | 0.787 | 0.71 | 0.484 | 0.427 | 0.384 | 0.748 | 0.365 | 0.392 | 0.377 | 0.374 | 0.436 | 0.661 | 0.532 | 0.504 | 0.658 |
| LSNPAYCLLLA [DDR1_Y513_R514C] | 0.591 | 0.683 | 0.819 | 0.855 | 1.05 | 0.699 | 1.63 | 0.844 | 5.79 | 0.973 | 0.605 | 6.78 | 1.49 | 0.912 | 4.44 | 1.5 |
| VTPSEYLEIVR [TMEM130_Y412_E407V] | 0.521 | 0.763 | 0.825 | 0.751 | 1.21 | 0.44 | 0.859 | 0.618 | 0.387 | 0.45 | 0.51 | 0.557 | 0.762 | 0.681 | 0.736 | 0.969 |
| FVFSFYHAFSG [ACTN4_Y265_S262F_YF] | 1.04 | 1.55 | 1.31 | 0.525 | 0.808 | 0.714 | 1.1 | 0.812 | 1.6 | 0.455 | 0.505 | 0.492 | 1.25 | 0.994 | 0.693 | 0.963 |
| EARRVYGDIIF [ALDH5A1_Y175_H180Y_YF] | 0.485 | 0.818 | 0.689 | 0.509 | 0.4 | 0.654 | 0.897 | 0.448 | 0.536 | 0.493 | 0.635 | 0.505 | 0.719 | 0.637 | 0.578 | 0.683 |
| RKRQFYLFKGK [RSPO4_Y112_C107R_YF] | 0.296 | 0.295 | 0.363 | 1.19 | 0.741 | 0.809 | 0.949 | 0.71 | 1.22 | 0.787 | 1.14 | 0.555 | 1.06 | 1.25 | 0.803 | 1.15 |
| SRGSSYNSIPK [FLNC_Y2625_S2626N] | 0.559 | 0.818 | 0.657 | 0.286 | 0.417 | 0.486 | 0.642 | 0.356 | 0.525 | 0.328 | 0.297 | 0.33 | 0.587 | 0.524 | 0.383 | 0.53 |
| LIFTNYEAGKD [GSTP1_Y112_YF] | 0.499 | 0.848 | 0.55 | 0.582 | 0.703 | 0.998 | 1.39 | 0.571 | 0.675 | 0.453 | 0.414 | 0.824 | 1.26 | 1.24 | 0.646 | 1.21 |
| FRAVKYLQMVG [AVPR2_Y117_C112Y_YF] | 0.552 | 0.96 | 3.15 | 0.319 | 0.509 | 0.496 | 1.26 | 0.393 | 0.366 | 0.366 | 0.397 | 0.387 | 0.902 | 0.629 | 0.518 | 0.889 |
| PKEEPYKMQEK [SLC5A3_Y565_Q566K] | 0.541 | 0.766 | 0.624 | 0.415 | 0.544 | 0.607 | 1.21 | 0.403 | 0.467 | 0.612 | 0.386 | 0.565 | 0.892 | 0.969 | 0.587 | 0.885 |
| ANYTEYVATSW [CDKL5_Y171_R175S] | 0.592 | 0.874 | 0.665 | 0.672 | 7.89 | 0.763 | 0.867 | 8.89 | 0.815 | 0.555 | 0.722 | 3.44 | 0.897 | 0.812 | 2.82 | 1.34 |

Further lines, with some results ahead:

| SH2 binding enrichment [1] | SH2 binding enrichment [2] | SH2 binding enrichment [3] | Sequence | phosphorylation enrichment [4] | phosphorylation enrichment [5] | phosphorylation enrichment [6] | phosphorylation enrichment [7] | phosphorylation enrichment [8] | phosphorylation enrichment [9] | phosphorylation enrichment [10] | phosphorylation enrichment [11] | phosphorylation enrichment [12] | phosphorylation enrichment [13] | phosphorylation enrichment [14] | phosphorylation enrichment [15] | phosphorylation enrichment [16] |
| --- | --- | --- | --- | --- | --- | --- | --- | --- | --- | --- | --- | --- | --- | --- | --- | --- |
| 3.26 | 1.26 | 5.62 | QLQVFYATLDQ [MIPEP_Y579] | 3.38 | 1.09 | 3.92 | 2.19 | 1.99 | 7.63 | 2.77 | 1.8 | 1.12 | 2.12 | 2.27 | 1.34 | 1.74 |
| 1.22 | 1.1 | 0.77 | MASISYDYCRV [BST2_Y6_T4I] | 1.02 | 4.17 | 0.589 | 0.908 | 3.29 | 0.75 | 2.33 | 0.565 | 1.32 | 1.09 | 0.708 | 1.1 | 1.58 |
| 0.656 | 0.801 | 0.618 | WANPEYTGGFK | 0.575 | 0.549 | 0.685 | 1 | 0.383 | 0.364 | 0.413 | 0.422 | 0.43 | 0.734 | 0.917 | 0.646 | 1.29 |
| 0.484 | 1.03 | 0.726 | ELCSEYRKSRK [SPINK5_Y440] | 0.412 | 0.425 | 0.375 | 0.803 | 0.489 | 0.443 | 0.457 | 0.378 | 0.429 | 0.474 | 0.555 | 0.394 | 0.562 |
| 0.396 | 0.788 | 0.609 | MSSAGYRAAEG [COL6A3_Y543_T538M] | 0.375 | 0.389 | 0.404 | 0.495 | 0.334 | 0.372 | 0.379 | 0.387 | 0.425 | 0.529 | 0.497 | 0.444 | 0.468 |
| 5.06 | 1.1 | 0.727 | RLLRGYDQLAY [HLA-C_Y137_S140L] | 0.637 | 0.719 | 0.45 | 1.02 | 0.67 | 0.581 | 0.758 | 0.735 | 0.65 | 0.649 | 0.477 | 0.976 | 1.29 |
| 0.632 | 0.881 | 0.612 | GSQERDFELVE [TSC2_Y407_Y407D] | 0.493 | 0.466 | 0.523 | 1.04 | 0.492 | 0.484 | 0.46 | 0.522 | 0.489 | 1.07 | 0.69 | 0.717 | 1.08 |
| 0.549 | 1.2 | 0.852 | QSRSPYSSRHS [CDK13_Y415_R410Q] | 0.593 | 0.471 | 0.705 | 0.808 | 0.443 | 0.452 | 0.543 | 0.715 | 0.558 | 0.823 | 0.597 | 0.541 | 0.85 |
| 0.409 | 0.749 | 0.712 | DFGSGYPNDPK [RNASEH2A_Y210_YF] | 0.423 | 0.516 | 0.464 | 0.678 | 0.469 | 0.424 | 0.39 | 0.382 | 0.397 | 0.906 | 0.562 | 0.579 | 0.778 |
| 2.72 | 0.691 | 1.82 | LTMAPYSSVSL [FAM81A_Y24] | 0.495 | 0.412 | 0.897 | 0.618 | 0.45 | 0.556 | 6.06 | 0.536 | 0.498 | 0.518 | 0.511 | 0.488 | 0.628 |
| 0.543 | 0.811 | 0.6 | ISDEAYVMAGV [ERBB2_Y772_L768S] | 0.541 | 0.495 | 0.504 | 0.81 | 0.53 | 0.436 | 0.564 | 0.603 | 0.494 | 0.656 | 0.62 | 0.736 | 1.15 |
